Drawing on US11352401, this text covers peptide exchange yield for 62 molecules.

Where only a bound is given, the exact number is not on record here.

The first experiment has as its target T1, HLA-A*24 (human).
T1 construct: MHC monomer made peptide-receptive by UV cleavage of a UV-sensitive ligand; also called peptide-receptive MHC class I monomer
The experiment in a line: UV peptide-exchange ELISA; ++++ = yield >75%. The source says: (§1) Candidate peptides for T cell based therapies according to the present invention were further tested for their MHC binding capacity (affinity). The individual peptide-MHC complexes were produced by UV-ligand exchange, where a UV-sensitive peptide is cleaved upon UV-irradiation, and exchanged with the peptide of interest as analyzed. Only peptide candidates that can effectively bind and stabilize the peptide-receptive MHC molecules prevent dissociation of the MHC complexes. To determine the yield of the exchange reaction, an ELISA was performed based on the detection of the light chain (β2m) of stabilized MHC complexes. The assay was performed as generally described in Rodenko et al. (Rodenko et al., 2006).
(§2) 96 well MAXISorp plates (NUNC) were coated over night with 2 ug/ml streptavidin in PBS at room temperature, washed 4× and blocked for 1 h at 37° C. in 2% BSA containing blocking buffer. […] Peptide-MHC monomers of the UV-exchange reaction were diluted 100-fold in blocking buffer. Samples were incubated for 1 h at 37° C., washed four times, incubated with 2 ug/ml HRP conjugated anti-β2m for 1h at 37° C., washed again and detected with TMB solution that is stopped with […]. Absorption was measured at 450 nm.
(In general: In an ELISA, binding on a coated surface is turned into a signal by an enzyme label.)
As to TWFPKTPMLF [TWFPKTPMLF (SEQ ID NO: 78)], the peptide exchange yield is over 75%. On the same count and under the same terms, in the case of RFLPSPVVI [RFLPSPVVI (SEQ ID NO: 82)] it was over 75%; in that of IMPEKFEFW [IMPEKFEFW (SEQ ID NO: 69)], over 75%.

With KYVKVFDKF [KYVKVFDKF (SEQ ID NO: 384)], the peptide exchange yield is over 75%. Take IYQQIIQTY [IYQQIIQTY (SEQ ID NO: 68)]: the peptide exchange yield is over 75%. Molecule RYLADLPTL [RYLADLPTL (SEQ ID NO: 79)] returned a peptide exchange yield of over 75%. On the same count and under the same terms, in the case of YYSPLRDLL [YYSPLRDLL (SEQ ID NO: 80)] it was over 75%; in that of LYQEILAQL [LYQEILAQL (SEQ ID NO: 62)], over 75%. In turn, MYINEVERL [MYINEVERL (SEQ ID NO: 385)] returned a peptide exchange yield of over 75%. As to VYSDLHAFYY [VYSDLHAFYY (SEQ ID NO: 375)], the peptide exchange yield is over 75%.

Consider NYAIFDEGHML [NYAIFDEGHML (SEQ ID NO: 64)], for which the peptide exchange yield is over 75%.

Molecule IYFRDSSFL [IYFRDSSFL (SEQ ID NO: 66)] registered a peptide exchange yield of over 75%. The molecule VMPSDSFFF [VMPSDSFFF (SEQ ID NO: 63)] had a peptide exchange yield of over 75%. On the same count and under the same terms, with TYCQNIKEF [TYCQNIKEF (SEQ ID NO: 83)] the figure was over 75%. For the molecule KFLGPAEHLTF [KFLGPAEHLTF (SEQ ID NO: 378)], the peptide exchange yield was over 75%. With RYEGILYTI [RYEGILYTI (SEQ ID NO: 72)], the peptide exchange yield was over 75%. Same read-out and setting: in the case of LYPEGLRLL [LYPEGLRLL (SEQ ID NO: 81)] it was over 75%; in that of VYDQYFITL [VYDQYFITL (SEQ ID NO: 74)], over 75%; in that of PYTNYTFDF [PYTNYTFDF (SEQ ID NO: 70)], over 75%. On the same count and under the same terms, with VYVGAVNRI [VYVGAVNRI (SEQ ID NO: 377)] the figure was over 75%. Molecule RYPGKFYRV [RYPGKFYRV (SEQ ID NO: 67)] yielded a peptide exchange yield of over 75%. Regarding VYPASKMFPFI [VYPASKMFPFI (SEQ ID NO: 65)], the peptide exchange yield is over 75%. As to SYMVLAPVF [SYMVLAPVF (SEQ ID NO: 71)], the peptide exchange yield was over 75%. On the same count and under the same terms, in the case of VYNDHSIYVW [VYNDHSIYVW (SEQ ID NO: 386)] it was over 75%.

For NYIYSISVF [NYIYSISVF (SEQ ID NO: 75)], the peptide exchange yield is over 75%.

As for KYVKDFHKF [KYVKDFHKF (SEQ ID NO: 376)], the peptide exchange yield is over 75%.

Molecule TYSKKHFRI [TYSKKHFRI (SEQ ID NO: 381)] gave a peptide exchange yield of over 75%.

The next experiment concerns the target T2, HLA-B*07 (human).
T2 construct: MHC monomer made peptide-receptive by UV cleavage of a UV-sensitive ligand; also called peptide-receptive MHC class I monomer
As to the kind of experiment: UV peptide-exchange ELISA; ++++ = yield >75%.
Source text: as §1, §2
For RPRALRDLQLL [RPRALRDLQLL (SEQ ID NO: 232)], the peptide exchange yield was over 75%. On the same count and under the same terms, with SPRVPSIEL [SPRVPSIEL (SEQ ID NO: 256)] the figure was over 75%; with HPAPYGDLL [HPAPYGDLL (SEQ ID NO: 263)], over 75%; with SPDIRNTTV [SPDIRNTTV (SEQ ID NO: 252)], over 75%. Same read-out and setting: in the case of RVRGGEDGDRAL [RVRGGEDGDRAL (SEQ ID NO: 236)] it was over 75%; in that of KPYQGNPTF [KPYQGNPTF (SEQ ID NO: 233)], over 75%. LPFDGPGGIL [LPFDGPGGIL (SEQ ID NO: 225)]: the peptide exchange yield is over 75%. With RPPAAGLRGISL [RPPAAGLRGISL (SEQ ID NO: 259)], the peptide exchange yield was over 75%. Still for that read-out and setting: in the case of GPQPWHAAL [GPQPWHAAL (SEQ ID NO: 224)] it was over 75%; in that of SPRDFLSGL [SPRDFLSGL (SEQ ID NO: 250)], over 75%; in that of RPRALRDLQL [RPRALRDLQL (SEQ ID NO: 231)], over 75%. Still for that read-out and setting: in the case of SPRQPPRLV [SPRQPPRLV (SEQ ID NO: 265)] it was over 75%; in that of MPLKHYLLL [MPLKHYLLL (SEQ ID NO: 235)], over 75%; in that of YVPSASLFML [YVPSASLFML (SEQ ID NO: 239)], over 75%.

Take VPDVAQFVL [VPDVAQFVL (SEQ ID NO: 221)]: the peptide exchange yield is over 75%.

MPLLENLYL [MPLLENLYL (SEQ ID NO: 255)]: the peptide exchange yield was over 75%. The same measure, in the same setting: in the case of RPIENRILIL [RPIENRILIL (SEQ ID NO: 243)] it was over 75%. The molecule SARLATDAL [SARLATDAL (SEQ ID NO: 241)] had a peptide exchange yield of over 75%. Same read-out and setting: in the case of SPSVSQLSVL [SPSVSQLSVL (SEQ ID NO: 220)] it was over 75%. Still for that read-out and setting: with FPYVRDFVM [FPYVRDFVM (SEQ ID NO: 244)] the figure was over 75%; with TPLPAVIVL [TPLPAVIVL (SEQ ID NO: 246)], over 75%. The same measure, in the same setting: in the case of RAKNAGVTI [RAKNAGVTI (SEQ ID NO: 234)] it was over 75%. Consider SPREVTTVL [SPREVTTVL (SEQ ID NO: 240)], for which the peptide exchange yield is over 75%. In the case of VPSSRILQL [VPSSRILQL (SEQ ID NO: 249)], the peptide exchange yield is over 75%.

For the molecule KPGPPWAAF [KPGPPWAAF (SEQ ID NO: 238)], the peptide exchange yield was over 75%. The same measure, in the same setting: with YPKDIYSSF [YPKDIYSSF (SEQ ID NO: 223)] the figure was over 75%; with SPRWLPVSL [SPRWLPVSL (SEQ ID NO: 242)], over 75%. On the same count and under the same terms, with NPFPHLITL [NPFPHLITL (SEQ ID NO: 254)] the figure was over 75%.

SPRMSGLLSQT [SPRMSGLLSQT (SEQ ID NO: 226)] returned a peptide exchange yield of over 75%.

Turning to LPRGPLASL [LPRGPLASL (SEQ ID NO: 258)], the peptide exchange yield is over 75%.

VPRSSGQTV [VPRSSGQTV (SEQ ID NO: 251)] showed a peptide exchange yield of over 75%.

For the molecule IPNWARQDL [IPNWARQDL (SEQ ID NO: 248)], the peptide exchange yield is over 75%. The molecule YPRGNHWAVGH [YPRGNHWAVGH (SEQ ID NO: 227)] came in with a peptide exchange yield of over 75%. The molecule LPRIPFADV [LPRIPFADV (SEQ ID NO: 257)] gave a peptide exchange yield of over 75%. Still for that read-out and setting: in the case of YPRGNHWAVGHL [YPRGNHWAVGHL (SEQ ID NO: 228)] it was over 75%.
